Measurements published in paper PMC9170038, “Crowdsourced RNA design discovers diverse, reversible, efficient, self-contained molecular switches”.
Residue numbers refer to the chain shown, from its start.

B1: Eterna 6443507 (Inverted Exclusion NG 1) (ssRNA)
RNA: CGAACCAUGUAGAAGGCUGUCUUAAAAUAGGACAGAGGAUAUACAUGAGGAUCACCCAUGUACUCCUUUAAAAGGUUCGAAAUA
B2: Eterna 1023 (Exclusion - FMN A) (ssRNA)
RNA: GUCCAUGUCCUCAUUCGUGCACUGGACACCAAGGAUAUGUUUAUGGACAGAAGGUGGUUGGGUCAGUGAUGUUGAUAUAAUUAGU
B3: Eterna 7687503 (Exclusion - Theophylline A) (ssRNA)
RNA: UGUAUGUGUCAGCGAGUGAUGUUCGACGAUACCAGACUCGAUAGAGUCCCUUGGCAGCGUAAUGCAUGCCAAACUGGCACAUACU
B4: Eterna 7632613 (Same State - Theophylline B) (ssRNA)
RNA: GGGUGUGAUCCGGAUACCAGCGAACAUGAGGAUCACCCAUGUGACCUGAGAUCGGCUCUACGCCCUUGGCAGCCGCGGUCGCAGG
B5: Eterna 7673438 (Same State - Arginine B) (ssRNA)
RNA: UGUAUGGACUGAAGGAGCGGGUUGAUAUCAUGAGGAUCACCCAUGGAAAAGGCGAAAGCCGCCCAGGUAGGUCGCAGUCCAUACU
B6: Eterna 7673392 (Same State - Arginine B) (ssRNA)
RNA: B5 RNA with U28A, A30C, C40U, U44G, G46U, G61A
B7: Eterna 5973727 (Sensor, turn-off variant 1) (ssRNA)
RNA: CCGUGCACGCUGCGCUCCUACAUGAGGAUCACCCAUGUGGUCCGGUGGCGUGGGUCGCCGGACUUGGCUCGUCUUGU
B8: Eterna 7710185 (Exclusion - Tryptophan A) (ssRNA)
RNA: AGCUCGCAUCCUCUAGCGUCAAAGACGCCUCGAGGACCGGUACGGCCGCCACUCGAGAUGAGGAUCACCCAUCUCAAAGCGAGCA
B9: Eterna 6374082 (Exclusion NG 1) (ssRNA)
RNA: CGGUGACGUGUAGGAUAUGGCGCUGGGUUUUGGCCAGAAGGACAUGAGGAUCACCCAUGUGGUAGAGGGCUGGCGGCCGCCCGU
B10: Eterna 11606 (Exclusion 1) (ssRNA)
RNA: UUUUAACAUGAGGAUCACCCAUGUGAGGAUAUCGAUAUUUUUAUUAAUAUUAAUAAAACGAGAAGGCACAUUUU
B11: Eterna 7697814 (Same State - Tryptophan B) (ssRNA)
RNA: AGUAGUUGGACGGCCGCCACUGGAACAGCUUUGCCAAAGGCAGAGCACUAGAGUGAUGUUCUAGCUAGGACCGGGUCCAACUACA
B12: Eterna 5503477 (Same State 1) (ssRNA)
RNA: AAGAAACAUGAGGAUCACCCAUGUAAGAUAAACACAGGAUAUGCGAAUAAAAUAAAUAAAGCAGAAGGGUGAAGAA
B13: Eterna 6447203 (Exclusion NG 2) (ssRNA)
RNA: AUCAGCUCGUCAGGAUAUACGUAACUGCGUCAGCAGUGUGGUAAGAUCACAUGAGGAUCACCCAUGUAGAAGGGACGAGCUGAU
B14: Eterna 7734801 (Same State - FMN B) (ssRNA)
RNA: UGUACCGAGUCAGGAUAUGUCGUCGAAAGACGAAUCCUAGUGAUGUUAGGGAUCUGCGAAAGCAGUGCAGAAGGGACUUGGUACU
B15: Eterna 6454516 (Inverted Same State NG 3) (ssRNA)
RNA: AAACACGGACAUGAGGAUCACCCAUGUGGCGAAAGCCUUGGAAGAAGGCCGAUUGCAAAGCAAUCGGAGGAUAUUCAUACCGUG
B16: Eterna 6429242 (Inverted Exclusion NG 1) (ssRNA)
RNA: UCCGCAUCUGAGAAGGGAUCUCCGCGGAAGGGAUCAGGAUAUCGGACAUGAGGAUCACCCAUGUGCCGUUAAAGGACACCUGGU
B17: Eterna 6398795 (Exclusion NG 1) (ssRNA)
RNA: CCUGCACCUCAAGGAUAUCCAGUCGAAACGACUGGAGAAGGUGAGGAUCACCCAUCUAGCCUGACGAAAGUCAGGCAUGCAGGA
B18: Eterna 6150223 (Exclusion NG 3) (ssRNA)
RNA: AUUAUGACCGAGUUAUGCUUCAAAACAUGAGGAUCACCCAUGUAGGAUAUCAGCACGAUAAGUGCUGAGAAGGACAUCUCGGUC
B19: Eterna 15969 (Sensor v3, turn-off variant 2) (ssRNA)
RNA: AAGUACCGUCACGAUAGUGAUGGUACAACAAGCAAAUGUACAUGAGGAUCACCCAUGUCCUCUUUUGCUCGUCUUGU
B20: Eterna 6407693 (Inverted Exclusion NG 2) (ssRNA)
RNA: UCAGGCUUCGAGAAGGACAUGAAUCGUAGCAUUGCUACGAUGAAUUAUACAUGAGGAUCACCCAUGUAGGAUAUCGGAGUCUGC
B21: Eterna 7710586 (Same State - Theophylline B) (ssRNA)
RNA: UCUGGUAUAUCUGAUACCAGAGUAUAGUAUCAAUUGCAUAUCCGCAGUGAUGUUGCGGAACUCCCUUGGCAGCAGAUCUAUCUCU
B22: Eterna 7696419 (Exclusion - Arginine B) (ssRNA)
RNA: AAUGUACAGGGAAGGAGCGUAGUCCAGUGAUGUUGGAGUUAAAUACCAGUGAUGUUGGUUAUACAGGUAGGUCGCCCUAAAGUGC
B23: Eterna 7697025 (Exclusion - Arginine B) (ssRNA)
RNA: UGAUAGGACAGAAGGAGCGGAAGUGAUGUUUCCAAUGGAUAAAAGGUGUCAAAGACACCCUUCCAGGUAGGUCGCUGUCCUAUCU
B24: Eterna 7730540 (Same State - FMN A) (ssRNA)
RNA: AGCGAGUGAUGUUCGCUGAUCAUGUGAAGUUAGGAUAUAUACUUGCAUAGAAGGAACUAUUACAUGACAUUAGAGGCAGUAGUUC
B25: Eterna 8125 (Exclusion 4) (ssRNA)
RNA: GUGAAGUGAGGAUAUACGAGAGAGGCUGAACCGGACGAGAAGUAGAAGGCACAUGAGGAUCACCCAUGUACGGG
B26: Eterna 7692142 (Exclusion - FMN A) (ssRNA)
RNA: UUAUAUACGAGUGAUGUUCGUUAUUUAUCAGAGGAUAUGCUUAAAUGCAGAAGGCUGUUUUUCUAUUUGAUAUUAAAUUUUAUAA
B27: Eterna 6428636 (Exclusion NG 3) (ssRNA)
RNA: AGGUAUCCUGAGAAAUUUCUCCACAUGAGGAUCACCCAUGUAGAGGAUAUCGACGCUGUGCGGUUCGAGAAGGCUACACUAAAA
B28: Eterna 7770355 (Exclusion - Tryptophan A) (ssRNA)
RNA: GGUGUUGUUUGUGCUGUUUUCCUCGUUCCUCGAGGACCGGUACGGCCGCCACUCGAGUGAUGUUUGGGUAGCGAUCCUUGUUAGU
B29: Eterna 7755228 (Same State - Theophylline A) (ssRNA)
RNA: AAAAUAAAUCAGUGAUGUUGGUAUCCGGAUACCAGCGAUAAUCAUCGCCCUUGGCAGCCGCGGACGUACAAAAUAAGUACGUCCU
B30: Eterna 9265 (Exclusion 1) (ssRNA)
RNA: CCGUCACAUGAGGAUCACCCAUGUCAGGAUAUCUAUCAUAGCAUCGAAAGAUGCGGGUAGAGAAGGGACUAUCC
B31: Eterna 7684764 (Exclusion - Tryptophan B) (ssRNA)
RNA: AAUAAAAUCACGGCCGCCACUGAUGUUAAUAUUAGCAGUGAUGUUGCUAUGUCGUUUUUAUUUAACAGGACCGGGUGAAUAUUUA
B32: Eterna 6063240 (Exclusion 4) (ssRNA)
RNA: GUUUCGUCAGGAUAUGUGGCUUCGAUCGUGCGAAGAAGGCUACAGAAGGCACAUGAGGAUCACCCAUGUUCGUC
B33: Eterna 6458016 (Inverted Same State NG 1) (ssRNA)
RNA: CGCUACACCCAGAAGGACAUGAGGAUCACCCAUGUAGGAUAUGGGAGACACAGUCCCAUGUAGAGAAAUUACGCUAGUGUAGCG
B34: Eterna 7710481 (Same State - Theophylline B) (ssRNA)
RNA: GGAGGUUGGUGCGAUACCAGACCAGCAGUGAUGUUGCGCCAAAGUGAGUGAUGUUCACCGGUCCCUUGGCAGCGCAUUCCUUUAG
B35: Eterna 6421601 (Exclusion NG 3) (ssRNA)
RNA: GGUACUCAAAGAGUACCAAAACGAACAUGAGGAUCACCCAUGUAGGAUAUGCUACUCAAAGAGUAGCAGAAGGACAUGUGCCUA
B36: Eterna 7692481 (Exclusion - Theophylline B) (ssRNA)
RNA: UUAGUUGAAAGUGAUACCAGACGAGUGAAGGGAAGAAAUUAAGUUGGAGUGAUGUUCCGCGUCCCUUGGCAGCACUUUGUAAUUU
B37: Eterna 7696031 (Exclusion - Tryptophan B) (ssRNA)
RNA: UGAUACCAGACGGCCGCCACUACACCAGUCAAAGACUGGAUGUGAAAUUCGACCAGUGAUGUUGGUAGGACCGGGUCUGGUAUCU
B38: Eterna 12594 (Exclusion 3) (ssRNA)
RNA: AACGAUCUAGGAUAUACAUGAGGAUCACCCAUGUAAGAGCCCAAACCAGGCUCCCUCUGUAGAAGGAGGUCAAA
B39: Eterna 6121278 (Same State NG 1) (ssRNA)
RNA: UCACUCAAGUUAGGAUAUGGAUCGGAAAACGAUCCAGAAGGAACAUGAAAACAUGAGCAUCAGCCAUGUUCCAGAAACGAGUGA
B40: Eterna 6121478 (Same State NG 1) (ssRNA)
RNA: B39 RNA with U1G, A29C, U46C, G47A, A49U, A66G, A84C
B41: Eterna 6117498 (Same State NG 2) (ssRNA)
RNA: AAAACAUACCGAGGAUAUUCAUAUAAUAAAUAAACAUGAGGAUCACCCAUUUGGCAAAAGCCUAGGGAGAAGGCGGAAUGCUAA

Target: MS2 coat protein, dlFG mutant (Escherichia phage MS2, UniProt P03612, del68-81insG)
Assay: 4 mM Mg2+; no ligand; RNA-MaP array; 100 mM Tris-HCl pH 7.5, 80 mM KCl, 4 mM MgCl2, 0.1 mg/mL BSA, 1 mM DTT, 0.01 mg/mL yeast tRNA, 0.01% Tween-20; protein 1.5 nM to 3 uM; 37 C (Table S3)
Settings: chain copies: 2; label: tethered by stalled RNA polymerase

Binder | Kd
B1 | 5.01 nM
B2 | > 3000 nM
B3 | > 3000 nM
B4 | 12.2 nM
B5 | 20 nM
B6 | 279 nM
B7 | 92.3 nM
B8 | 190 nM
B9 | 15.7 nM
B10 | 68 nM
B11 | > 3000 nM
B12 | 51.2 nM
B13 | 51.7 nM
B14 | > 3000 nM
B15 | 13.8 nM
B16 | 6.05 nM
B17 | 368 nM
B18 | 14.7 nM
B19 | 166 nM
B20 | 5.71 nM
B21 | > 3000 nM

Binder | Kd
B22 | > 3000 nM
B23 | > 3000 nM
B24 | > 3000 nM
B25 | 208 nM
B26 | > 3000 nM
B27 | 5.95 nM
B28 | > 3000 nM
B29 | > 3000 nM
B30 | 19.2 nM
B31 | > 3000 nM
B32 | 34.2 nM
B33 | 166 nM
B34 | > 3000 nM
AAAACAUGAGGAUCACCCAUGUAAA (ssRNA) [Eterna 1 (MS2 control)] | 12.8 nM
B35 | 18.5 nM
B36 | > 3000 nM
B37 | > 3000 nM
B38 | 44.9 nM
B39 | 77.6 nM
B40 | 463 nM
B41 | 974 nM
